# Data published in publication PMC5837747.
# Biological target: HA-14-3-3β (UniProt P31946)
# Assay: GFP co-immunoprecipitation, HA blot, densitometry
"binding against the reference (reference: wild type (unstimulated and PMA-treated cells), sites S1093,S1163)","binding against the reference (reference: S1093A single mutant, sites S1163)","binding against the reference (reference: S1163A single mutant, sites S1093)",Substance
weaker,–,–,"mouse CdGAP (mCdGAP, GFP-CdGAP) (from UniProt A6X8Z5) S1093A/S1163A"
–,weaker,weaker,"mouse CdGAP (mCdGAP, GFP-CdGAP) (from UniProt A6X8Z5) S1093A/S1163A double mutant"
